# Measured values reported in patent US12497460B2, “Anti-MSR1 antibodies and methods of use thereof” (REGENERON PHARMACEUTICALS, INC., priority 2018, dated 2025).
# Substitutions are numbered along the chain they refer to. Names may count otherwise.
# B1: H1H21227N-N297Q: "modified versions of 21227N (H1H21227N-N297Q and H1H21227N-N297D)"; anti-MSR1 antibody "with a N297Q single point mutation" (antibody, V domains shown)
# VH: QVQLVQSGAEVKKPGASVKVSCKVSGYTLTELSIHWVRQVPGKGLEWMGGFDPEEGETIFAQEFRDRVTLTEDTSPDTAYMELSSLKSEDAAVYYCTTPRYCNNGICYDYWGQGTLVTVSS
# VL: DIQMTQSPSSLSASVGDRVTITCRASQSISNYLNWYQQKPGKAPKLLIYTASSLQSGVPSRFSGSGSGTDFTLTISSLQTEDFATYYCQQSYSNFPITFGQGTRLEIKR
# B2: H1H21231N: "anti-MSR1 antibodies ... (21227N, 21231N, 21234N) were produced with the original human Fcγ portion"; "H1H" = human IgG1 Fc (antibody, V domains shown)
# VH: EVQLVESGGGLVQPGGSLRLSCAASGFTFSDHYMDWVRQAPGKGLEWVGRTRNKANSHTTEYTASVTGRFTISRDDSRNSLYLQMNSLKTEDTAVYYCVRAGIIGTLFDYWGQGTLVTVSS
# VL: B1 VL with S7F, N31S, Y32F, Y36F, L46F, T50A, T80P, N94S, F95P
# modifications: human IgG1 Fc
# notes: "anti-MSR1 antibodies ; (21227N, 21231N, 21234N) were produced with the original human Fcγ portion"; "H1H" = human IgG1 Fc
# B3: H1H21227N: "anti-MSR1 antibodies ... (21227N, 21231N, 21234N) were produced with the original human Fcγ portion"; "H1H" = human IgG1 Fc (antibody, V domains shown)
# VH: B1 VH
# VL: B1 VL
# modifications: human IgG1 Fc
# notes: as for B2
# B4: H1H21227N-N297D: "The 21227N antibody was also produced as a third version with a N297D mutation" (antibody, V domains shown)
# VH: B1 VH
# VL: B1 VL
# B5: H1H27729P-N297Q: anti-MSR1 antibody "made with an N297Q single point mutation in human Fcγ portion" (antibody, V domains shown)
# VH: QVQLVESGGGLVKPGGSLRLSCAASGFIFSDYYMSWIRQAPGKGLEWVSYISSSGTTIYGDSVKGRFTMSRDNAKNSLYLQMNSLRAEDTAVYYCARNYALFDYWGQGTLVTVSS
# VL: DIQMTQSPSSLSASVGDRVTITCQASQDISKYLNWYQQKPGKAPKLLIYYTSNLETGVPSRFSGSGSGTDFTFTISSLQPEDIATYYCHQSDYLPFTFGPGTKVDIKR
# B6: H1H21231N-N297Q: modified version of "21231N (H1H21231N-N297Q) anti-MSR1 antibodies" with "a N297Q single point mutation" (antibody, V domains shown)
# VH: B2 VH
# VL: B1 VL with S7F, N31S, Y32F, Y36F, L46F, T50A, T80P, N94S, F95P
# Biological target: T1, HEK293.Myc.hMSR1 cells (human MSR1) (Homo sapiens, UniProt P21757)
# T1 construct: expressed in transfected cells; host or cells: HEK293 (lentiviral transduction, hygromycin selection)
# T1 sequence (P21757 1-451): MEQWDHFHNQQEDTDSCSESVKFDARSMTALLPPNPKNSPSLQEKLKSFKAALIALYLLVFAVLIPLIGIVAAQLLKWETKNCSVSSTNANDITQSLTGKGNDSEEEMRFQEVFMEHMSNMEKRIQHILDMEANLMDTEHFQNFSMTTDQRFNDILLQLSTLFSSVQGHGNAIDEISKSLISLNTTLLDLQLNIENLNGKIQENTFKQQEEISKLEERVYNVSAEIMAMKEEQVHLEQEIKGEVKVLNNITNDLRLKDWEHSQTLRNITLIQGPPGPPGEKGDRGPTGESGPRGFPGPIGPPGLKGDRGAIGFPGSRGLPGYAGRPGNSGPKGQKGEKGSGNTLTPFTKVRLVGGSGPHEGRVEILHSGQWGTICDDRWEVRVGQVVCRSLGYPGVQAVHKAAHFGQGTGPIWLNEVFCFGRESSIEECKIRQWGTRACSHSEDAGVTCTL
# Assay: Electrochemiluminescence antibody binding assay on MSR1-expressing cells
# Format: cell-based
# Conditions: not given
row,Molecule,"Ratio of 11 nM Antibody Binding Signal (RLU) to isotype control, HEK293.Myc.hMSR1"
1,B1,37
2,B2,61
3,B3,37
4,B4,34

# System: HEK293.mfMSR1 cells (monkey MSR1)
# Assay: as above
# Format: cell-based, Macaca fascicularis
# Conditions: not given
row,Molecule,"Ratio of 11 nM Antibody Binding Signal (RLU) to isotype control, HEK293.mfMSR1"
1,B1,23
2,B2,75
3,B3,26
4,B4,25

# Biological target: T2, MSR1-mediated Dil-OxLDL uptake in HEK293.Myc.hMSR1 cells (Homo sapiens, UniProt P21757)
# T2 construct: expressed in transfected cells; host or cells: HEK293 (lentiviral transduction, hygromycin selection)
# T2 sequence (P21757 1-451): T1 sequence (P21757 1-451)
# Assay: Ligand uptake assay, Dil-OxLDL
# Format: cell-based
# Conditions: 10 μg/mL Dil-OxLDL
# Method: A bioassay was generated to assess the ability of the exemplary anti-MSR1 antibodies to regulate the uptake of certain MSR1 ligands.
# Generation of MSR1-expressing cell lines for assay. […] The resulting cell line, referred to here as “HEK293.Myc.hMSR1”, was selected and maintained in DMEM containing 10% FIBS, NEAA, penicillin/streptomycin, L-glutamine, and 100 μg/mL hygromycin.
# Ligand uptake assay. […] After 30 minutes, either oxidized or acetylated low-density lipoprotein (LDL) labeled with 1,1′dioctadecyl-3,3,3′,3′-tetramethylindocarbocyanine perchlorate (referred to as “Dil-OxLDL” or “Dil-AcLDL,” respectively) was added to the cells at a constant concentration of 10 μg/mL. […] Results were analyzed using nonlinear regression (4-parameter logistics) with the Prism 7 program to obtain EC50 and IC50 values. The percentage of inhibition was calculated with the Relative Fluorescent Unit (RFU) values by using the following equation: […]
# In the equation, “RFUBaseline” is the fluorescence value from the cells treated with 10 μg/mL ligand without antibodies, “RFUInhibition” is the minimum fluorescence value with for a particular antibody with 10 μg/mL ligand, and “RFUBackground” is the fluorescence value from cells without any ligand or antibodies.
Molecule,Dil-Oxidized LDL IC50,maximum inhibition of Dil-OxLDL uptake
B5,no inhibition,no inhibition

# Same assay, conditions: 10 μg/mL Dil-OxLDL, read-out: Dil-Oxidized LDL IC50
row,Molecule,IC50
1,B1,1.8 nM
2,B2,3.6 nM
3,B3,2 nM

# Same assay, conditions: maximum inhibition, 10 μg/mL Dil-OxLDL
row,Molecule,Dil-Oxidized LDL % Inhibition
1,B5,no inhibition
2,B1,94%
3,B2,78%
4,B3,89%

# Biological target: T3, Ox-LDL binding to His9-hMSR1 (Homo sapiens, UniProt P21757)
# T3 construct: human MSR1 extracellular domain expressed with a N-terminal nonahistidine tag; His9 (nonahistidine) (N); purchased R&D Systems 2708-MS
# T3 sequence (P21757 77-451 limits assumed): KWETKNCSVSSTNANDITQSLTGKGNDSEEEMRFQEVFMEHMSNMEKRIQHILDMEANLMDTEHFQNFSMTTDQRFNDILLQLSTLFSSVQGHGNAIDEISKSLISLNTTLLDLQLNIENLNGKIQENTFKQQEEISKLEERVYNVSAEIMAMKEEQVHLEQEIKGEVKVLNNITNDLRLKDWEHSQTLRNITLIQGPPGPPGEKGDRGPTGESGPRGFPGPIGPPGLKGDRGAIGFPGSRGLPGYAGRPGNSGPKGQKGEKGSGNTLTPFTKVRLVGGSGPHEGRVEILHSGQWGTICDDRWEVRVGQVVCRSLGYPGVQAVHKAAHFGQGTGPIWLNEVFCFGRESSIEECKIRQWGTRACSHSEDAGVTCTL
# Assay: Competition sandwich ELISA, blocking of Ox-LDL binding
# Conditions: antibody 500 nM, Ox-LDL 10 nM
# Method: The ability of anti-MSR1 antibodies disclosed herein to block the binding of various ligands to human MSR1 was measured using three competition sandwich ELISA assays. The ligands used in the assays were: (1) acetylated LDL (Ac-LDL), (2) oxidized LDL (Ox-LDL), and (3) advanced glycation end-products of bovine serum albumin (AGE-BSA).
# Anti-MSR1 antibodies or isotype control antibodies were serially diluted as appropriate for each tested ligand and added in duplicate for each serial dilution set to microtiter plates coated with His9-hMSR1. Buffer alone was also added to wells on each coat. […] This assay was conducted in four different assay runs.
# Data analysis was performed using a sigmoidal dose-response model within Prism™ software (GraphPad). Percent blockade at maximum concentration of the antibody tested in each assay was calculated as an indicator of the ability of the antibodies to block the binding of Ac-LDL, Ox-LDL or biot-AGE-BSA to His9-hMSR1 on the plate relative to the baseline of the assay. In the calculation, binding signal of the same concentrations of Ac-LDL, Ox-LDL, or biot-AGE-BSA used for the assays in the absence of antibody was referenced as 100% binding or 0% blocking, while the baseline of the assay, defined as binding signal of the sample of buffer without MSR1 ligands or antibody, was referenced as 0% binding or 100% blocking. The maximum percent blockade at the highest concentration of antibody tested in each assay are reported for all antibodies.
row,Molecule,anti-MSR1 antibody blocking of Ox-LDL binding to His9-hMSR1 % Blocking
1,B1,97%
2,B2,22%
3,B3,100%
4,B6,26%
5,B4,99%
